According to US20190025332A1:

What was measured:
[1] = target: wild type human MIC-1 (human) (UniProt Q99988); experiment: SPR blocking; wtMIC-1 mixed with 0 nM mIgG1, over immobilised hGFRAL(ECR)-Fab; RU of wtMIC-1 binding
[2] = target: wild type human MIC-1 (human) (UniProt Q99988); experiment: SPR blocking; wtMIC-1 mixed with 1 nM mIgG1, over immobilised hGFRAL(ECR)-Fab; RU of wtMIC-1 binding
[3] = target: wild type human MIC-1 (human) (UniProt Q99988); experiment: SPR blocking; wtMIC-1 mixed with 2 nM mIgG1, over immobilised hGFRAL(ECR)-Fab; RU of wtMIC-1 binding
[4] = target: wild type human MIC-1 (human) (UniProt Q99988); experiment: SPR blocking; wtMIC-1 mixed with 4 nM mIgG1, over immobilised hGFRAL(ECR)-Fab; RU of wtMIC-1 binding
[5] = target: wild type human MIC-1 (human) (UniProt Q99988); experiment: SPR blocking; wtMIC-1 mixed with 8 nM mIgG1, over immobilised hGFRAL(ECR)-Fab; RU of wtMIC-1 binding
[6] = target: wild type human MIC-1 (human) (UniProt Q99988); experiment: SPR blocking; wtMIC-1 mixed with 0 nM mIgG1, over immobilised mGFRAL(ECR)-Fab; RU of wtMIC-1 binding
[7] = target: wild type human MIC-1 (human) (UniProt Q99988); experiment: SPR blocking; wtMIC-1 mixed with 1 nM mIgG1, over immobilised mGFRAL(ECR)-Fab; RU of wtMIC-1 binding
[8] = target: wild type human MIC-1 (human) (UniProt Q99988); experiment: SPR blocking; wtMIC-1 mixed with 2 nM mIgG1, over immobilised mGFRAL(ECR)-Fab; RU of wtMIC-1 binding
[9] = target: wild type human MIC-1 (human) (UniProt Q99988); experiment: SPR blocking; wtMIC-1 mixed with 4 nM mIgG1, over immobilised mGFRAL(ECR)-Fab; RU of wtMIC-1 binding
[10] = target: wild type human MIC-1 (human) (UniProt Q99988); experiment: SPR blocking; wtMIC-1 mixed with 8 nM mIgG1, over immobilised mGFRAL(ECR)-Fab; RU of wtMIC-1 binding
[11] = target: wild type human MIC-1 (human) (UniProt Q99988); experiment: SPR blocking; wtMIC-1 mixed with 0.5 nM mIgG1, over immobilised hGFRAL(ECR)-Fab; RU of wtMIC-1 binding
[12] = target: wild type human MIC-1 (human) (UniProt Q99988); experiment: SPR blocking; wtMIC-1 mixed with 0.5 nM mIgG1, over immobilised mGFRAL(ECR)-Fab; RU of wtMIC-1 binding
[13] = target: wild type human MIC-1 (human) (UniProt Q99988); experiment: SPR blocking; wtMIC-1 mixed with 0.25 nM mIgG1, over immobilised hGFRAL(ECR)-Fab; RU of wtMIC-1 binding
[14] = target: wild type human MIC-1 (human) (UniProt Q99988); experiment: SPR blocking; wtMIC-1 mixed with 0.25 nM mIgG1, over immobilised mGFRAL(ECR)-Fab; RU of wtMIC-1 binding
[15] = target: wild type human MIC-1 (human) (UniProt Q99988); experiment: SPR blocking; wtMIC-1 mixed with 0.125 nM mIgG1, over immobilised hGFRAL(ECR)-Fab; RU of wtMIC-1 binding
[16] = target: wild type human MIC-1 (human) (UniProt Q99988); experiment: SPR blocking; wtMIC-1 mixed with 0.125 nM mIgG1, over immobilised mGFRAL(ECR)-Fab; RU of wtMIC-1 binding

wild type human MIC-1 (human), sequence (Q99988 197-308 limits assumed): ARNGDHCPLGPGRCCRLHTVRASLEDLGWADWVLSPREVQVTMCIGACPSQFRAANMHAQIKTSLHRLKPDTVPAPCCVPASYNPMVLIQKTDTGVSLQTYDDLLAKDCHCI

With isotype control (mIgG1) (antibody) the Response (RU) [1] was 58.3 RU, the Response (RU) [2] was 59.3 RU and the Response (RU) [3] was 60 RU. The Response (RU) [4] was 59.1 RU, the Response (RU) [5] was 59.4 RU and the Response (RU) [6] was 55.6 RU. It also gave a Response (RU) [7] of 54.1 RU, a Response (RU) [8] of 54.5 RU and a Response (RU) [9] of 55.4 RU. It also gave a Response (RU) [10] of 55.5 RU, a Response (RU) [11] of 58.4 RU and a Response (RU) [12] of 55 RU. It also gave a Response (RU) [13] of 59.4 RU, a Response (RU) [14] of 54.6 RU and a Response (RU) [15] of 58.4 RU. It also gave a Response (RU) [16] of 55.3 RU.
